According to publication PMC11997214:

Assay: Flag IP, Ub blots after NMS-873 or CB-5083
Conditions: glycan lost; control: wild type

Protein | other: total and K48-linked ubiquitination
B7H3 (4IgB7H3, CD276): N91/104/309/322Q (protein) parent chain: MLRRRGSPGMGVHVGAALGALWFCLTGALEVQVPEDPVVALVGTDATLCCSFSPEPGFSLAQLNLIWQLTDTKQLVHSFAEGQDQGSAYANRTALFPDLLAQGNASLRLQRVRVADEGSFTCFVSIRDFGSAAVSLQVAAPYSKPSMTLEPNKDLRPGDTVTITCSSYQGYPEAEVFWQDGQGVPLTGNVTTSQMANEQGLFDVHSILRVVLGANGTYSCLVRNPVLQQDAHSSVTITPQRSPTGAVEVQVPEDPVVALVGTDATLRCSFSPEPGFSLAQLNLIWQLTDTKQLVHSFTEGRDQGSAYANRTALFPDLLAQGNASLRLQRVRVADEGSFTCFVSIRDFGSAAVSLQVAAPYSKPSMTLEPNKDLRPGDTVTITCSSYRGYPEAEVFWQDGQGVPLTGNVTTSQMANEQGLFDVHSVLRVVLGANGTYSCLVRNPVLQQDAHGSVTITGQPMTFPPEALWVTVGLSVCLIALLVALAFVCWRKIKQSCEEENAGAEDQDGEGEGSKTALQPLKHSDSKEDDGQEIA | increases
B7H3 (4IgB7H3, CD276): 8NQ (protein) parent chain: MLRRRGSPGMGVHVGAALGALWFCLTGALEVQVPEDPVVALVGTDATLCCSFSPEPGFSLAQLNLIWQLTDTKQLVHSFAEGQDQGSAYANRTALFPDLLAQGNASLRLQRVRVADEGSFTCFVSIRDFGSAAVSLQVAAPYSKPSMTLEPNKDLRPGDTVTITCSSYQGYPEAEVFWQDGQGVPLTGNVTTSQMANEQGLFDVHSILRVVLGANGTYSCLVRNPVLQQDAHSSVTITPQRSPTGAVEVQVPEDPVVALVGTDATLRCSFSPEPGFSLAQLNLIWQLTDTKQLVHSFTEGRDQGSAYANRTALFPDLLAQGNASLRLQRVRVADEGSFTCFVSIRDFGSAAVSLQVAAPYSKPSMTLEPNKDLRPGDTVTITCSSYRGYPEAEVFWQDGQGVPLTGNVTTSQMANEQGLFDVHSVLRVVLGANGTYSCLVRNPVLQQDAHGSVTITGQPMTFPPEALWVTVGLSVCLIALLVALAFVCWRKIKQSCEEENAGAEDQDGEGEGSKTALQPLKHSDSKEDDGQEIA | increases
